Assay [1] has as its target T1, FcγRIIb extracellular domain with C-terminal His tag (human, UniProt P31994 43-217).
T1 construct: extracellular domain; also called FcgRIIb
T1 sequence (looked up): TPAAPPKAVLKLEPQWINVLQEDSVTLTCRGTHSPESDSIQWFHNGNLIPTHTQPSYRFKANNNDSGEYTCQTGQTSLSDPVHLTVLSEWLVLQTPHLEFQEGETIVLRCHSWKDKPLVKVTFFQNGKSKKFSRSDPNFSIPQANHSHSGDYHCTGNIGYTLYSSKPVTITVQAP
The assay can be described thus: SPR (Biacore); KD of IL6R-B3/IL6R-L / KD of variant. For orientation: In SPR one partner is held on a chip, and binding of the other changes the refractive index at the surface.

In assay [2] the target is T1, FcγRIIb extracellular domain with …. Nature of the assay: SPR (Biacore), FcgR as analyte.
The target in assay [3] is T2, FcγRIa extracellular domain with C-terminal His tag (human, UniProt P12314 16-292).
T2 construct: also called FcgRIa
Nature of the assay: SPR (Biacore), FcgR as analyte.

For assay [4], the target named is T3, mouse FcγRIV (mouse, UniProt A0A0B4J1G0 21-203).
T3 construct: also called mFcγRIV
T3 sequence: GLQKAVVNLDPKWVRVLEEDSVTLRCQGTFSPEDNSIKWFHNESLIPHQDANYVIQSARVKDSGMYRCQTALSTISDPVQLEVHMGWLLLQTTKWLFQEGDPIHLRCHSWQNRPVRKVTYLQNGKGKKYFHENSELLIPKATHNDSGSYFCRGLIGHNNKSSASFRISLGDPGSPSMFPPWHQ
Nature of the assay: SPR.

In assay [5] the target is T4, mouse FcγRI (mouse, UniProt P26151 25-297, limits assumed).
T4 construct: also called mFcγRI
T4 sequence (looked up): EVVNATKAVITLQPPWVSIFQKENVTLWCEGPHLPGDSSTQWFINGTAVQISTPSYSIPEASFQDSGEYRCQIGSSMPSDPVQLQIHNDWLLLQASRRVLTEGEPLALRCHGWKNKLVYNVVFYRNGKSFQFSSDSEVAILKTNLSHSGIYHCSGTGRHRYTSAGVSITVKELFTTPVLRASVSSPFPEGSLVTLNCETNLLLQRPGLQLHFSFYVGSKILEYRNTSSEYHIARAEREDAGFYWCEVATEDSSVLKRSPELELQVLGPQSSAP
Nature of the assay: SPR.

In assay [6] the target is T5, human IgE (human).
T5 construct: recombinant antigen; its variable region is from an anti-human glypican 3 antibody; also called hIgE
Nature of the assay: SPR Biacore T200, 37 C; pH/Ca dependency. The source says: (§1) 1.2 mmol/1 CaCl₂/0.05% tween20, 20 mmol/l ACES, 150 mmol/l NaCl, pH 7.4 [0568] 1.2 mmol/1 CaCl₂/0.05% tween20, 20 mmol/l ACES, 150 mmol/l NaCl, pH 5.8 [0569] 3 μmol/l CaCl₂/0.05% tween20, 20 mmol/l ACES, 150 mmol/l NaCl, pH 5.8
(§2) A peptide produced by adding biotin to Lys present at the C terminus of a chemically synthesized human glypican 3 protein-derived sequence (SEQ ID NO: 12) (hereinafter written as “biotinylated GPC3 peptide”) added at an appropriate amount was immobilized onto Sensor chip SA (GE Healthcare) utilizing the affinity between streptavidin and biotin. An appropriate concentration of human IgE was injected and trapped with the biotinylated GPC3 peptide to immobilize human IgE onto the chip. […] Then, 10 mmol/L glycine-HCl (pH 1.5) was injected to regenerate the sensor chip. All of the assay for the interaction was performed at 37° C. Using Biacore T200 Evaluation Software (GE Healthcare), the assay results were analyzed by curve fitting to determine the binding rate constant ka (1/Ms) and dissociation rate constant kd (1/s). Dissociation constant KD (M) was calculated from the above constants.

Assay [7] has as its target T5, human IgE. The assay can be described thus: SPR Biacore T200, 37 C, hIgE on chip, antibody analyte; pH 5.8, 1.2 mM Ca.
Text: as §1, §2

The target in assay [8] is T5, human IgE. The assay can be described thus: SPR Biacore T200, 37 C, hIgE on chip, antibody analyte; pH 5.8, 3 µM Ca.
Text: as §1, §2

Assay [9] deals with T5, human IgE. Nature of the assay: SPR Biacore T200, 37 C, hIgE on chip, antibody analyte; pH 7.4, 1.2 mM Ca.
Text: as §1, §2

Assay [10] addresses T5, human IgE. The assay can be described thus: SPR Biacore T200, 37 C; pH dependency.
Text: as §1, §2

T5 sequence (heavy, as listed by the source, chain 1 of 2, other chains not shown): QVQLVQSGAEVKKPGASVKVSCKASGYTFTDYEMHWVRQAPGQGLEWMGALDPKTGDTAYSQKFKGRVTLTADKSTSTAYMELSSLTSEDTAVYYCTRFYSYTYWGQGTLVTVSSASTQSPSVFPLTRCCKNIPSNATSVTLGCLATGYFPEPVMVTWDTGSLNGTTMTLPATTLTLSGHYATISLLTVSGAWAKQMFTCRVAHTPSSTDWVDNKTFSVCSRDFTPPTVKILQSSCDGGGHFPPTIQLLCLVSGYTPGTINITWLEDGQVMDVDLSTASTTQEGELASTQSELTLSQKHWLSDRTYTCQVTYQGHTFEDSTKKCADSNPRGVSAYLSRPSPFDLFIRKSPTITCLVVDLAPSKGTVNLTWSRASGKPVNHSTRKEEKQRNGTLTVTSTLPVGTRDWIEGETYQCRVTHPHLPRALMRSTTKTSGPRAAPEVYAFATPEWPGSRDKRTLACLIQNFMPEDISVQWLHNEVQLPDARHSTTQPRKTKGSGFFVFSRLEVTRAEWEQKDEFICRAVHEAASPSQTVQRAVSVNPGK
T2 sequence (P12314 16-292): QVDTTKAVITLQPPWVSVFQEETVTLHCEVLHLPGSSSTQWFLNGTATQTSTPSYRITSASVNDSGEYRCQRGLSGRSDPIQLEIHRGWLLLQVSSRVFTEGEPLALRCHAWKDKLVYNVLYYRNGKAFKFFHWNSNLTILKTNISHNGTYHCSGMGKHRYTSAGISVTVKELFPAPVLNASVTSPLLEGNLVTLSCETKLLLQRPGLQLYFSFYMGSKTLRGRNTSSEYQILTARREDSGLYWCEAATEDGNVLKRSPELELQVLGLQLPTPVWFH

B1: IL6R-BP198/IL6R-L (antibody, human IgG1, kappa, name in EU numbering)
heavy: QVQLQESGPGLVKPSETLSLTCAVSGHSISHDHAWSWVRQPPGEGLEWIGFISYSGITNYNPSLQGRVTISRDNSKNTLYLQMNSLRAEDTAVYYCARSLARTTAMDYWGEGTLVTVSSASTKGPSVFPLAPSSKSTSGGTAALGCLVKDYFPEPVTVSWNSGALTSGVHTFPAVLQSSGLYSLSSVVTVPSSSLGTQTYICNVNHKPSNTKVDKKVEPKSCDKTHTCPPCPAPDYLGGDSVFLFPPKPKDTLMISRTPEVTCVVVDVSDEDGEVKFNWYVDGVEVHNAKTKPREEQYNSTYRVVSVLTVLHQDWLNGKEYKCKVSNAALPKPIEKTISKAKGQPREPQVYTLPPSRDELTKNQVSLTCLVKGFYPSDIAVEWESNGQPENNYKTTPPVLDSDGSFFLYSKLTVDKSRWQQGNVFSCSVMHEALHNHYTQESLSLSP
light: not shown
notes: IgG1; alterations on IL6R-B3, EU numbering
Turning to B1, the “Relative FcgRIIb-binding Activity” value in [1] stood at 15.7 fold vs IL6R-B3/IL6R-L. Moreover, the Kd (usually the constant that tells how readily two partners part at equilibrium) was 0.2 µM in assay [2] and 0.011 µM in assay [3].

B2: VH3/L (WT)-mIgG1 (antibody)
heavy: QVQLQESGPGLVKPSETLSLTCAVSGHSISHDHAWSWVRQPPGEGLEWIGFISYSGITNYNPSLQGRVTISRDNSKNTLYLQMNSLRAEDTAVYYCARSLARTTAMDYWGEGTLVTVSSAKTTPPSVYPLAPGSAAQTNSMVTLGCLVKGYFPEPVTVTWNSGSLSSGVHTFPAVLQSDLYTLSSSVTVPSSTWPSETVTCNVAHPASSTKVDKKIVPRDCGCKPCICTVPEVSSVFIFPPKPKDVLTITLTPKVTCVVVDISKDDPEVQFSWFVDDVEVHTAQTQPREEQFNSTFRSVSELPIMHQDWLNGKEFKCRVNSAAFPAPIEKTISKTKGRPKAPQVYTIPPPKEQMAKDKVSLTCMITDFFPEDITVEWQWNGQPAENYKNTQPIMDTDGSYFVYSKLNVQKSNWEAGNTFTCSVLHEGLHNHHTEKSLSHSPGK
light: not shown
notes: mouse IgG1 Fc region
As for B2, the binding result in assay [4] and in assay [5] was “no binding” throughout.

B3: clone 278 (IgG1) (antibody, V domains shown)
VH: QSLEESGGRLVTPGTPLTLTCTASGFSLSSYHMSWVRQAPGKGLEWIGVINSAGNTYYASWAKGRFTVSKTSTTVDLNLTSLTTEDTATYFCARYVFSSGSHDIWGPGTLVTVSS
VL: AYDMTQTPASVEVAVGGTVTIKCQASQSIGSWLAWYQQKPGQPPKELIYGTSTLESGVPSRFIGSGSGTEFTLTISGVECADAATYYCQQGYSEDNIDNAFGGGTEVVVKR
notes: pH-dependent anti-human IgE antibody with human IgG1 constant region
B3: the “KD(pH 5.8, 3 µM Ca)/KD(pH 7.4, 1.2 mM Ca)” value in [6] came out at 1640 ratio. The Kd in assay [7] came to 2 µM; in assay [8], 3.9 µM; in [9], 0.0024 µM. The koff (usually a measure of how fast the partners let go of each other) in assay [7] is 0.23 s⁻¹; in assay [8] it was 0.24 s⁻¹; in [9], 0.0036 s⁻¹. Besides, the kon (usually a measure of how fast the partners come together) worked out at 120000 M⁻¹ s⁻¹ in assay [7], 62000 M⁻¹ s⁻¹ in assay [8] and 1.5e+06 M⁻¹ s⁻¹ in assay [9]. In addition, the “KD(pH 5.8, 1.2 mM Ca)/KD(pH 7.4, 1.2 mM Ca)” value in [10] was 842 ratio.

The record behind these values is US20220411483A1 (Chugai, published 2022).
